Test results published in PMC6484116, “The NifZ accessory protein has an equivalent function in maturation of both nitrogenase MoFe protein P-clusters” (The Journal of Biological Chemistry, 2019).
Where “and” joins values, the source holds several entries; their conditions need not be identical. Equal values may be shown once.

Legend:
[1] = target: T1, MoFe protein^HisΔZ (His-tagged nitrogenase MoFe protein produced in a nifZ-deletion strain) (Azotobacter vinelandii, UniProt P07328 1-492; P07329 1-523); assay: affinity purification with mass spectrometry; MoFe protein^HisΔZ isolated by IMAC from extract of cells derepressed 4 h, then Q-Sepharose anion exchange (200-500 mM NaCl gradient); fractions on SDS-PAGE, Coomassie, densitometry; bands identified by MALDI; settings: partners not purified
T1 construct: nitrogenase MoFe protein α-subunit (NifD), Azotobacter vinelandii; polyhistidine-encoding tag incorporated into the N-terminal coding region; nitrogenase MoFe protein β-subunit (NifK), Azotobacter vinelandii; A mixed population: αβ-units hold either an immature P-cluster without FeMo-cofactor or a mature P-cluster with FeMo-cofactor; also called MoFe^His protein; α2β2 heterotetramer; source: A. …
T1 sequence (looked up) 1: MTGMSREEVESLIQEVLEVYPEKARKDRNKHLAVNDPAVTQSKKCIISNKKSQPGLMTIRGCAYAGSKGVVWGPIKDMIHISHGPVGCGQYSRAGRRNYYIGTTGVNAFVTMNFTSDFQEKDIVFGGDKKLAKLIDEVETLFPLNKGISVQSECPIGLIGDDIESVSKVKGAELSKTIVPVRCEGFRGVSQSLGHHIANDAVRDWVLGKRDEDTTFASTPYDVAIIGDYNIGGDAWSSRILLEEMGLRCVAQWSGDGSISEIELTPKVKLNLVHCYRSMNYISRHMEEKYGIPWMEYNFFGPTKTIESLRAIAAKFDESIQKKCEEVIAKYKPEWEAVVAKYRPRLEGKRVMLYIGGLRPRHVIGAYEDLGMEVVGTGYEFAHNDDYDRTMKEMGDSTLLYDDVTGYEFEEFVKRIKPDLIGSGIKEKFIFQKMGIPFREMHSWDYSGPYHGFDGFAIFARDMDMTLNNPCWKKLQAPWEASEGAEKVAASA
T1 sequence (looked up) 2: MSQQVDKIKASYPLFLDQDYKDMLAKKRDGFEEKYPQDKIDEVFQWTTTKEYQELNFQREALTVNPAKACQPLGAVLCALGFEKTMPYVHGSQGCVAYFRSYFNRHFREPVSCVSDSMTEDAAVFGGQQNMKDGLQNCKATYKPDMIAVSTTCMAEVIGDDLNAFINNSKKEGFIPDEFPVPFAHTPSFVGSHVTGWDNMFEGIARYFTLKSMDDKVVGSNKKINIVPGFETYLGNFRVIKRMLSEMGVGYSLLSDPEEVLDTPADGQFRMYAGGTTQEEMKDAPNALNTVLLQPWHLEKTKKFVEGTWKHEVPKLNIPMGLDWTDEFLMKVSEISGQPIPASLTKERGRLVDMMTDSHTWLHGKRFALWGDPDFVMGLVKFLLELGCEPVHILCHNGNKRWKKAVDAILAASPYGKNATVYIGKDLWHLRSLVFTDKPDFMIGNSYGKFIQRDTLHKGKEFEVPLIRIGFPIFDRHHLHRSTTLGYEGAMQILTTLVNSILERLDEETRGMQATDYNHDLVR

[2] = target: T2, MoFe protein^StrΔZ (Strep-tagged nitrogenase MoFe protein produced in a nifZ-deletion strain) (Azotobacter vinelandii, UniProt P07328 1-492; P07329 1-523); assay: affinity purification with mass spectrometry; MoFe protein^StrΔZ isolated on Strep-Tactin (STAC) from cell extract, then Q-Sepharose anion exchange (200-500 mM NaCl gradient); fractions on SDS-PAGE, Coomassie, densitometry; bands identified by MALDI; also after incubating the extract 0-240 min with 36 mM Na2S2O4 at 30 °C (NifW slowly dissociates); settings: partners not purified
T2 construct: nitrogenase MoFe protein α-subunit (NifD), Azotobacter vinelandii; Strep-encoding tag incorporated into the N-terminal coding region; nitrogenase MoFe protein β-subunit (NifK), Azotobacter vinelandii; A mixed population: αβ-units hold either an immature P-cluster without FeMo-cofactor or a mature P-cluster with FeMo-cofactor; also called MoFe^StrΔZ; α2β2 heterotetramer; source: A. vinelandii …
T2 sequence (looked up) 1: T1 sequence (looked up) 1
T2 sequence (looked up) 2: T1 sequence (looked up) 2

stoichiometry N [1]: ~1 NifW per α2β2 heterotetramer and 2 NifW per α2β2 heterotetramer
stoichiometry N [2]: ~1 NifW per α2β2 heterotetramer and ~2 NifW per α2β2 heterotetramer
B1: NifW (accessory protein, endogenous) (natural protein, UniProt P14888 1-115, looked up)
chain: MTVQPFSPDSDLTLDEAMDELVSAEDFLEFFGVPFDQDVVHVNRLHIMQRYHDYLSKAGDLDEHDDQARYAVFQKLLARAYLDFVESDALTEKVFKVFRMHEPQKTFVSIDQLLS
notes: NifW, Azotobacter vinelandii; also called NifW assembly factor; source: endogenous, A. vinelandii DJ1182 or DJ2111 cell extract; co-purified with MoFe protein
